According to a protein production outcome set (Wang et al. 2014):

Test: label from the status in PepcDB records

Sequence	protein production
MMDVNSSGRPDLYGHLRSFLLPEVGRGLPDLSPDGGADPVAGSWAPHLLSEVTASPAPTWDAPPDNASGCGEQINYGRVEKVVIGSILTLITLLTIAGNCLVVISVCFVKKLRQPSNYLIVSLALADLSVAVAVMPFVSVTDLIGGKWIFGHFFCNVFIAMDVMCCTASIMTLCVISIDRYLGITRPLTYPVRQNGKCMAKMILSVWLLSASITLPPLFGWAQNVNDDKVCLISQDFGYTIYSTAVAFYIPMSVMLFMYYQIYKAARKSAAKHKFPGFPRVEPDSVIALNGIVKLQKEVEECANLSRLLKHERKNISIFKREQKAATTLGIIVGAFTVCWLPFFLLSTARPFICGTSCSCIPLWVERTFLWLGYANSLINPFIYAFFNRDLRTTYRSLLQCQYRNINRKLSAAGMHEALKLAERPERPEFVLITRTSGVHQALENFPWGNEVNRWRKSCEYFCTDKMLTTVEKKVMIHD	failed
MKQVVLNLKDGDLTVEEVPIPTIKGSGVLVRNHYSVISAGTESGVVDLADKSLIGKARARPDLAMKVINKAKQDGPISAFQQAMGRLEKREPLGYSSAGTVISVSEDIKDIKPGDRVACAGAGYANHADVVFVPRNLCAKVPENVDFKNACFTTVGSIAMQGVRNADVKIGENIVVIGLGLIGLITLQILKASGCRVFGVDLDESKVNLARELGADLSYSRNSPNLEERIKQFSRGIGADSTIITAATRSNDPVDFAGKITRERGKVVIVGLVGMDIPREEYYNKELEMRISRSYGPGRYDRNYEEYGQDYPAPYVRWTENRNMQAFLDLISMKKISMEPIITHEYEIEQAPEAYNIIKERKPYLGLVLKYDTDKRIEDKVILKSPGPVSAISESFSPVLGVIGAGIFATSILLPNLSKIKGVKLKGLSAASGLSCESVAKKYGFEYCTSDYHKILSDPEINCVSIVTRNSLHASLVIEALKNKKNVLVEKPLALNEEELNAIIEAKKENGGFIMVGFNRRYSELGVKLKDFFKNRSQSMVAYYRVNAESIPKDHWVYDESEGGSRIITECCHFIDFMQFIIGSSPVEVYARKIESQVKTPEDNENVSITIAFEDGSIGTLIYTTHGDSSVSKEHAEFFADGMVGAITDFKQLKLVKDGKCTQINKRLITEKGHKNELENFFKMVKQGPSKYSFEENVLTTVSTLKAAEHVMSGGPVKLI	failed
MSLHETFNRSAFSQFINGGQGRVLRLAAGLGFLAVGLVYRDRALGLAAMAWSVLPLTAGGFDVCYISAALGGPLSGEKIRRLRR	failed
MKLNISAQSLNYTKYDNVIPSRDAILGLFDKVKSYLSYEQISHSSGLNDEPEKDALKKRLRAMERDGQLIFTRRKGYKRVDQSSLVTGKISIHVDGFGFLTYDDNEKDLFLPKHQLSHVFDGDIILVLKGHTQHQGRSNHRFIKIVERKTTHIVGLLKRKGSKLYLLPENSKLTQTIYVTPNELIAKNVGKLVHCKINTYPDYRQPTTVEVNEVLGRPGEAGIEVKLALRRHGINDKWDKDVLDAASAFGSQVEEKDKTSRVDYRDLPFVTIDGDDAKDFDDAVYGYQMDNGQWKLFVAIADVSHYVKPNDHLDLEAQSRATSVYFPGCVVPMLPESLSNGLCSLNPNEDRLVMVCEMTFDDEGNMLDSEFSEGIIHSHARLTYDDANRIIMQSSAKTTYQSNNPKNNIAQYLVNLHRLYLNLSGQRKVRGAIDFDTQELAFKLNNKKKIASIVPVVRNDAHRMIEEFMLCANVATAQFLELNKIPSLYRVHSGPQMKKLTSLRMLLAEKGLTLAGGDKPTSHDYNALLDQVRDLDECDIIRTLLLRSQSQAEYSPKNLGHFGLAYDAYAHFTSPIRRYPDLLIHRAIRAKLREKTTGKLRSLLMKLKPIRQLAGISNSYPYDTKEIEQLSVHCSHQSRQADEVSREVESALKCHYMKPFIGRNFMGSVSGVTHFGVFVELEENRIEGLIPLSSFQNGDFEFDAIKQKISSQTTTFTLGTQVNIIVKEIDSKQRKIIFNFA	failed
MDQLWANRAASAEAAITERHLKKLWGLPGTQLGVVAWPPARKYTLFGTWHYWWQAHLLDCLVDAQVRDPQPERTTRIERQLRAHRLRNNLSWVNDYYDDMAWLALAIERAGRLAGVEKPTALRKLCDQFVTAWVPEDGGGIPWRKQDQFFNAPANGPAGIFLARYDDRLRRAQQMADWIDETLIDPDTHLVFDGIKAGSLVRAQYTYCQGVVLGLEVELAVRTQDPRHAPRVRRLVAAVDKEMTTDGVIKGAGGGDGGLFNGILARYLALVATTLPGETPEDIAARDTARTIVLKSARSAWDHRQTVDGLPLFSAFWDRNAEIPTAGGKEAEFVEGAVNASSVPERDLSVQLAGWMLMEAAHSVDSVDAEDAAGDQNGAGDGEVGHDENEDEELEHHHHHH	not failed
MVWLWCVLHLLVAALGTWGLRRYALHRRLLDHPGERRSHVVATPRGGGMAIVAAILLGCVAACALWPTSRLTVCWFAAGLVAVAGVGWWDDHRPLSARLRFSIHLAASVALGALVWHGTGSVWDGVLTAAASVMLINVWNFMDGINGLASTQAALAALGFSLVAPVGWSWAGLAVAAACLGFVPFNFPRARIFMGDGGSGALGYVLAALLALNVAGGQVSWWISWLPLTAFLVDAGFTLLARMLSGQRWWEPHAQHVYQRLARRLETHVPVTGVYFAFSLIAVCLYLLIRHDPFWLQVSGALVWGMGATAIWHFLRDGLRNS	failed
MLNSDIYLKESLYDLLSLWRTPAFFLPAMLFPLVFYVFFGIVFNFSAAQGEYMLVSYACFGMMGPALFNYATAVASDRAQGWLTLKRISPMPLSAYVVAKFFSSLVFAACIALMLFITAALFADVQLLLWQWATLFTVLLIGTLPFALIGLLMGLCLSDKAAPAVVNLVYLPMAFLSGLWVPIQFLPDTVRYIAYGLPSYHYSQLAHAVIGTNQGHNLWLHGLYLVAFCGVLIAVIYWRYQRLSR	failed
MRTLVAPTHAPKRRMLLALLATPALALAQPAWTQQPPPVKLDVPYVPTPDDAVARMLEMADVTAQDTVIDLGSGDGRIAIAAVRDRGARSAMGVDIDPERIAEARANARKAGLADRVTFVQQDLFDTDISKATVLTMYLLPDVNLKLRPRILNSLAPGTRVVSHAFTMGEWDSDRYELVDGRSLYLWVVPAHAAGDWQVEDPAGPFTLSVRQDFQKVTASAQRQGERLGVAEAALRGTDLRFTVDAGSGPRTYVGRIQGDRMTAVQAPGNESGWRATRRAP	failed
MMDGSTFYFVAWIGWIIVTFFMKKDPIRWKLGACILIFIICSPLHVTIASFVVSVNALLLCIISFIGITLYSVWKKLYSLLSALIIAMLYTSFHLLEIYDPIWIVVDRVFLLSSALVYASVLLHGDRILRLCSLYVGMLQAELLVTFIFSKLNFPYDYGSLAFFDIVAISTLFMAILFWIAKASVYMERFKRKTRKRKARVIHD	failed
MIKHPLKILFMHGLDSSRESTKFHAIESTNKFCITIDYRNLSYNTVADFYQNTIETIQPDLLIGHNLGGYWALKLSSQYHLAAIVANPSLAPLFRDDYPSLTSKELDTDSPKIAYIELGDESLNMYDIQNVLEDYMIVDSIEGGHHRLENPSKLNILIDHIQSEYFSHTIR	failed
MTEIKYKVITKDAFALPYTIIKAKNQPTKGVIVYIHGGGLMFGKANDLSPQYIDILTEHYDLIQLSYRLLPEVSLDCIIEDVYASFDAIQSQYSNCPIFTFGRSSGAYLSLLIARDRDIDGVIDFYGYSRINTEPFKTTNSYYAKIAQSINETMIAQLTSPTPVVQDQIAQRFLIYVYARGTGKWINMINIADYTDSKYNIAPDELKTLPPVFIAHCNGDYDVPVEESEHIMNHVPHSTFERVNKNEHDFDRRPNDEAITIYRKVVDFLNAI	failed
MRYSLFKNYLPKEEVPEIRKELIKLALPAMGENVLQMLFGMADTAFLGHYSWKAMSGVGLSNQVFWVVQVVLIAASMGATVTIANAIGAGNRKAVRSLAWNSVFLAIFTGVILTALTPLSDVLINIFPNLEGEIESSAKEYLKVILSGSMGFSIMAVFSAMLRGAGDTRTPMIVTGLTNFLNIFLDYAMIFGKFGFPEMGVRGAAVATILSRFVGAGILTYVIFKREEFQLRKGLVPPKWSSQKEILRVGFPTAIENFVFSTGVLMFANILLIAGAEAYAGHRIGINVESLSFMPAFGISVAITTLVGRYNGMGNKEHVLGVIRQGWILSLLFQVTVGIIIFLFPEPLIRIFTSDPQIIEISKLPVKIIGLFQFFLAIDSTMNGALRGTGNTLPPMIITFISIWTARLPVAFVMVKYFQLGLLGAWIGMIADIIFRSTLKLLFFLSGKWEKRAVLTRERVKELG	failed
MVYLLPFFTVMIWGGNSIVNKMAASTIEPSAMSFYRWFVAMVLLTPFCLPAVIKQRHVIRPYLTKLAFLALLGMVLNQSLGYYAGLTTTASNMALITSLVPLISVFLSVPLLGKSVSMLSIVGGVISLGGLAFMLGHGDVTYFLHQDMTQGDSLMLLAALVYAAYCVLLKRWKMPFNSLTLVYMQGFFSVIMLTPLWLSSEQLLPSQEALPLIAYAGIAASIFAPLMWVKAIDLIGADSSAMFMNLMPVVSVALASTLLGEEIHVYHIIGGLMVISGVILSQIKVRKKQDLVVSESLTTTTR	failed
MGIHLFWDSRVPVGLSRPVSEELSAVLEMPVSRIDDGIFPLEGFDPVRNQYDAVKVLLKLDMFRRRMPQIFKPADMDLEFYNKFNHLHEKILLVTPGDLYEPLADFVFGLAYPKLGVAIVSPHRLQNEFYGKYADDSALIDRIVKEGAHEIGHLFGLGHCDNPGCIMYCPRNLDELDRKRKYFCGKCRVQLNGDTLEDDLFSLEHHHHHH	not failed
MVKIEVAKPINFNRLITSKEAEVVSMRILNQPNSYISLFSLAKDEEITAEAMLGNRYYYCFNGNGEIFIENNKKTISNGDFLEITANHNYSIEARDNLKLIEIGEKIGDGNMENKTLKMLESASAFNLAEVVEYQEGKIVSKNLVAKPNLVMTIMSFWKGESLDPHKAPGDALVTVLDGEGKYYVDGKPFIVKKGESAVLPANIPHAVEAETENFKMLLILVKE	not failed
MRVDGLNGRPHSHWVINKVIGDSTMTFSNAQRLRPVRRHAIFQACALGFALALASGSAFAAAALTQPAQDPAKVAPASLAVSKIDFKRGEDGTGRLILQFNGQGASPDLRTQGDNVLVDISNARLPAELQRPLNVTDFATPVQRVEVKPSGSGSQLVLSTKGAFDSLAYQTGNEYVVEITPRKGQPAVGGVSPAAVTQAAAQIAARGYSGRPVTFNFQDVPVRTVLQLIAEESNLNIVASDTVQGNVTLRLMNVPWDQALDIVLRAKGLDKRRDGGVVWVAPQPELAKFEQDKEDARIAIENREDLITDYVQINYHNAAVIFKALTEAKGIGGGGGSGGGQGGQGGAGQQDNGFLSPRGRLVADERTNTLMISDIPKKVAQMRELISHIDRPVDQVLIESRIVIATDTFARDLGARFGIIGATGRGILSGSLDSNTNYLNTSAKRASEIANGGTSTTLPAHLFPSGLNVNLGAGGGFTTNTPGGLAYTLLGSNFNLDIELSAMQQEGRGEVVSNPRIVTANQREGVIKQGREIGYVTISGSGAGGGSQANVQFKEVLLELKVTPTITNDNRVFLNMNVKKDEVARLIDLPLYGTVPEINRREINTAVLVGDGETVVIGGVYEFTDRESVSKVPFLGDIPFLGNLFKKRGRSKEKAELLVFVTPKVLRVASATR	failed
MPSMSPIDKSWSTCPYGFLDGTHQELRRIFHLWRCKKYRSQFTEEKKATYEEKLAASELFKDKKALYPSSVSQPFKGDYVEITKNPKYQKLNSLVEDKVLLADVVSKINRANGKGTPRIFLLTKKCLVLADQKTGQVKASVPLPDLSSVFVSTQNDGFFALKLREGATSAAKGDYLLSSDRLIEIITKLYCTGAASAERNQIKIDISDEFLVQFKQDKVCVKFIQGTPKNSNSVSCKRKNNRLLEVSVPSP	failed
